This experiment has as its target T1, trem2_human TREM2 (UniProt Q9NZC2).
T1 sequence: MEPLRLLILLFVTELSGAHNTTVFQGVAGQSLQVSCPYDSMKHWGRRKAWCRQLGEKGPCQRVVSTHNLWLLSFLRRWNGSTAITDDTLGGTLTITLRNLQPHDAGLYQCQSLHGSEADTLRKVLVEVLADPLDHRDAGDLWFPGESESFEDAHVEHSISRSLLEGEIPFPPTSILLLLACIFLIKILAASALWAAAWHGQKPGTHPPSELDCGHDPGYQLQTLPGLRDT

As to “Presenilin-1 (Homo sapiens) (from UniProt P49768) D385A”, the “effect of a mutation on the interaction” value was “with no effect”.
